# Where two headings read alike, the source gives them in different places.
# T1: Human CD93 recombinant protein (Sino Biological Inc, Catalog #12589-H08H) (human, UniProt Q9NPY3 22-580)
# T1 construct: Biotinylated (EZ-LINK NHS-PEG4 biotin) in the BLI assays; also called hCD93; His-tagged human CD93
# T1 sequence (looked up): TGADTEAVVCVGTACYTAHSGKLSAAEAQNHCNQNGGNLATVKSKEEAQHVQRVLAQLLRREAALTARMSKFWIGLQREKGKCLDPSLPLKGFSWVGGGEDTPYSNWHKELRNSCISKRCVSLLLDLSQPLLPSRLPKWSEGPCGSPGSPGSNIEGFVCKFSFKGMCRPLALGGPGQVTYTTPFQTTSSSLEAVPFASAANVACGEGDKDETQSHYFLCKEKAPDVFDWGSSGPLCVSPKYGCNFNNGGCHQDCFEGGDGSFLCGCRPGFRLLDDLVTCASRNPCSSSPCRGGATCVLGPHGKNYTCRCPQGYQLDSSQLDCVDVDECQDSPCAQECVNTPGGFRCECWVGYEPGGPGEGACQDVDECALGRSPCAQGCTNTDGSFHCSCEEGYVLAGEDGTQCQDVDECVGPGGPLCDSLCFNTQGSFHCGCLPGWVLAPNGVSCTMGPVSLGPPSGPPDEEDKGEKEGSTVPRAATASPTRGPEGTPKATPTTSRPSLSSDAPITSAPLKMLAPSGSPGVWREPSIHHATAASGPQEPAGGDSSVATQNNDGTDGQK
# T2: Human CD93 on cells (human CD93 expressing CHO cells; HUVEC, U937 and KG1a cells) (human, UniProt Q9NPY3 22-652)
# T2 construct: whole, on cells; also called hCD93 expressing CHO cells; hCD93 CHO cells
# T2 sequence (looked up): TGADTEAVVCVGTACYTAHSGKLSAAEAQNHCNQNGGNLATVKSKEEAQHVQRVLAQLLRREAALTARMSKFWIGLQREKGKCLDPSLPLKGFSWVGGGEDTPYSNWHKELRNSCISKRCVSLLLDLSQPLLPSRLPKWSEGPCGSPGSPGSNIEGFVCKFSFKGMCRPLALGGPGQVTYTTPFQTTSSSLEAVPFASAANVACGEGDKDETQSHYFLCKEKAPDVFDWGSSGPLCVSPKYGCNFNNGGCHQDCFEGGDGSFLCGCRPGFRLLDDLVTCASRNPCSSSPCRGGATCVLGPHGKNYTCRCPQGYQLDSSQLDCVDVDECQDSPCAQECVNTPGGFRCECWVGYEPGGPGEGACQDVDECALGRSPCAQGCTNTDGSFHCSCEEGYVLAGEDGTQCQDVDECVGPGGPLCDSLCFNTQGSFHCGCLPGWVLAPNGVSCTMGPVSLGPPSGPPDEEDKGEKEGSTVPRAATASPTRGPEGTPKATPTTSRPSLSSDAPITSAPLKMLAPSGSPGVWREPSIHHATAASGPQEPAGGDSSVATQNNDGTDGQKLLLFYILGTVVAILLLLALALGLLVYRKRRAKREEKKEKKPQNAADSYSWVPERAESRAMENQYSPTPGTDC
# Tests used:
# [1] = target: T1, Human CD93 recombinant protein (Sino …); assay: summary table, column Octet (hCD93); 2 weeks at 40 C
# Protocol: (§1) The binding affinity of anti-CD93 antibodies was determined with bio-layer interferometry using Octet QKe (Fortebio). […] Human CD93 recombinant protein (Sino Biological Inc, Catalog #12589-H08H) was biotinylated using EZ-LINK NHS-PEG4 biotin (Thermo Fisher Scientific). Streptavidin biosensors (Fortebio) were used to load biotinylated CD93 protein (300 seconds in 5 μg/ml). Baseline was stabilized for 60 seconds in 1×kinetics buffer (Fortebio) before anti-CD93 antibodies, at a serial dilution, were allowed to associate for 300 seconds with captured protein. Then the sensors were dissociated in 1× kinetics buffer for 600 seconds. […] (FIG. 41).
# as §1, with “1× kinetics” for “1×kinetics”, “42).” for “41).”
# [2] = target: T2, Human CD93 on cells (human CD93 …); assay: summary table, column FACS (CHO-hCD93 cells); 2 weeks at 40 C
# [3] = target: T2, Human CD93 on cells (human CD93 …); assay: summary table, column FACS (CHO-hCD93 cells); 4 weeks at 40 C
# [4] = target: T2, Human CD93 on cells (human CD93 …); assay: flow cytometry titration, KG1a cells; antibody stored 4 weeks at 40 C
# Protocol: KG1a cells were detached by incubation with TrypLE reagents (Thermo Fisher), which preserves the integrity of CD93 on the cell surface. Then the cells were incubated with serial diluted anti-CD93 antibodies for 30 minutes at 4° C. After washing by FACS buffer, the cells were incubated with Alexa Fluor 647 conjugated anti-human IgG (Jackson ImmunoResearch) for 30 minutes in 4° C. After washing by FACS buffer twice, the samples were acquired in NovoCyte Flow Cytometer and analyzed by NovoExpress software.
# [5] = target: T1, Human CD93 recombinant protein (Sino …); assay: BLI (Octet QKe), biotinylated human CD93 on streptavidin biosensors; antibody stored 2 weeks at 40 C
# Protocol: as §1
# [6] = target: T2, Human CD93 on cells (human CD93 …); assay: flow cytometry blocking assay, CHO-hCD93 cells; blocked ligand hMMRN2 495-674 at 0.1 ug/ml; antibody stored 2 weeks at 40 C
# Protocol: Then the cells were incubated with hMMRN2₄₉₅₋₆₇₄ at 0.1 μg/ml. […] After washing with FACS buffer twice, the samples were analyzed, and data acquired in NovoCyte Flow. Recombinant his tagged hMMRN2₄₉₅₋₆₇₄ was produced internally in E. Coli following routine procedure.
# [7] = target: T1, Human CD93 recombinant protein (Sino …); assay: BLI (Octet QKe), biotinylated human CD93 on streptavidin biosensors; antibody stored 2 weeks at 40 C; remark: listed apart in the source
# Protocol: as §1, with “1× kinetics” for “1×kinetics”, “42).” for “41).”
Kd [1],EC50 [2],EC50 [3],EC50 [4],Kd [5],koff [5],kon [5],IC50 [6],Kd [7],koff [7],kon [7],Binder
0.495 nM,0.194 nM,0.195 nM,0.019 nM,0.495 nM,0.000356 s⁻¹,720000 M⁻¹ s⁻¹,0.133 nM,,,,"h7F3 (humanized 7F3, VH3+VL3) (antibody, human IgG1, V domains shown, also called humanized 7F3-hIgG1) VH: QVQLVQSGAEVKKPGASVKVSCKASGYTFTDYEMHWVRQAPGQGLEWMGGIDPETGDTAYNQNFKGRVTMTTDTSTSTAYMELRSLTSDDTAVYYCTNYGNLYYYAMDYWGQGTSVTVSS VL: EIVLTQSPSSLSASVGDRVTITCRASSSVSSSYLHWYQQKPGKAPKLLIYSTSNLAFGVPSRFSGSGSGTSYTFTISSLQPEDIATYYCQQYSGYPLTFGSGTKLEIK"
0.0204 nM,0.274 nM,0.312 nM,0.115 nM,,,,,0.0204 nM,5.08e-06 s⁻¹,249000 M⁻¹ s⁻¹,"h16E4 (humanized 16E4, VH4+VL6) (antibody, V domains shown, Detected with anti-human IgG, so a human Fc) VH: QVQLVQSGAEVKKPGASVKVSCKASGYTFTSYWMHWVRQAPGQGLEWMGEIDPSASYTYYNQKFKGRVTMTRDKSSSTVYMELSSLTSEDSAVYYCARSVYYGNKYFDVWGAGTTVTVSS VL: DIQMTQSPSTLSASVGDRVTITCKASQSVDYAGDSYMNWYQQKPGKAPKLLIYAASNLESGVPSRFSGSGSGTEFTLTISSLQPDDFATYYCQQTNEDPRTFGGGTKLEIK"

# Source: US20230365705A1 (DYNAMICURE BIOTECHNOLOGY, published 2023)
